According to a protein production outcome set (Wang et al. 2014):

Assay: label from the status in PepcDB records

Sequence	protein production
MIIVHHLNNSRSQRILWLLEELGLPYEIKRYQRDPKTNLAPPELKAIHPLGKSPVIEDGPHVVIESGAIVDYLIRRHGDGRLQPDPASATYDEYVQWLHFAEGSAILPLMLNLYVGRLGDAGAPLHPRIHSELANYLGYLNEALGLTPYLLGDELSGADIQMSFIGEFAKMQGMLQPHPNLAAWVQRCQERPAYRQALEQGGEYSFAK	failed
MGHHHHHHENLYFQSHMDSKRAALESGDGPDAKRLDTTDDQDKEASGGDGSQVMLAKHVAPYTGHGCTPPMESYLFEPTPAGSQLLPWKTSVDLDNDAELEKPTSDKKPDTAKLSRRELAKMRREHTLRALALERELTNKPGQTPASEVLLVRFPDPEITAPMLAG	not failed
MSIVIMFKYVSDVSNIYHNIITSFIENKNIAIDATLGNGHDCDFLSELFKKVYAFDIQEEAVNSYKSKNKENVEVILDSHENFETYIKEENVDCIVYNLGYLPGNNKEVTTVAHSTLKSIEIGLDLLGDNGLMIIALYSGHEEGKKEKDAVLQFTSKLPKNKYGVLHTEFTNRAKSAPSLVVIEKKFK	failed
MSPTHKPMPEPTEVFTLPRWKITRWLTDTDRDVPTDIKRALIGSLFGTLSIFVGGVVNTLLVAALIAWHIQRPAFFAWFGLECLICIARISILVSARRRARAARSTHTDLHLALSLAWAFSVGLGTYLSITSGNWLAAALACLSSAAMIGGICFRNFGAPRMSGLMILLALGPCCLGAIVAREPLFLLTLIQLPVYVASMTSASFRMHAMLVATMQSERENAHRARHDSMTGLLNRGSLLAEIRATMECNAISPLRSALLYLDLDGFKRINDVHGHGCGDELLQQVADRMRATVPEGTHVSRIGGDEFVILLNLHESDDVQVLAQRLLRDIAVPYLLANGETVAIGVSIGITHISPNGQSADAVLNVADRALYVAKARGKGCFHFSEAVQAL	failed
MNEADMLFSVTVPGSTANLGPGFDSVGMALSRYLKLTVFESDKWSFEAETETVAGIPAGTDNLIYQVAKRTADLYGKEMPPVHVKVWSDIPLARGLGSSAAAIVAAIELADELCGLKLSEADKLHLASLEEGHPDNAGASLVGGLVIGLHEDDETQMIRVPNADIDVVVVIPFYEVLTRDARDVLPKEFPYADAVKASAVSNILIAAIMSKDWPLVGKIMKKDMFHQPYRAMLVPELSKVEHVAEMKGAYGTALSGAGPTILVMTEKGKGEELKEQLALHFPHCEVDALTVPKEGSIIERNPLYQVKSV	not failed
MCDCLSIILLVKMKKIYLKFVDFWDGFDTISNFIVDALSIQYEVVLSNEPDYLFYSCFGTSHLEYDCIKIMFIGENIVPDFNVCDYAIGFNYIDFGDRYLRLPLYAIYDGFSNLQNKKIDVNKALDRKFCSIVVSNNKWADPIRETFFKLLSSYKKVDSGGRAWNNIGGPVDNKLDFISQYKFNIAFENSRVLGYTTEKIMEPMQVNSIPVYWGNPLVGKDFNVDSFVNAHDFDSLERLVEYIIELDSSKDKYLEMLEKPWLLDKTYLDWKQLLLNFINNIMMKSYKDAKYLVNYGHAGKYRNEQRFWGRCERKFKLQRIIEYYSQLFDRKLEHHHHHH	failed
DGDIGQLSKTFNYMVSELKSRRNELIAVRDQIDERRRFSEAVLSGVTAGVAGIDDNGNITIINRSIETMFDIRSEHVIGHSLLSLSAEIDQVFQFARSLGRKNHREQVTLSVAGQERVCNVQITMEKDDG	failed
MKTARPGKLKRQEEQASFISWRFALLCGCILLALVGLIMRTAYLQVINPDKLVREGDMRSLRVQEVPTARGMISDRSGRPLAVSVPVNAVWADPKELIEQGGISLDTRWKALSDALEIPLDQLATRINANPKGRFVYLARQVNPAIGDYIRKLKLPGIHLRQESRRYYPAGQVMAHIIGVTNIDGQGIEGVEKSFDRWLTGQPGERTVRKDHYGRVIEDISSVDSQAAHNLVLSVDERLQALVYRELNNAVAFNKAESGTAVLVDVNTGEVLAMANSPSYNPNNLTGTPKDAMRNRAITDIFEPGSTVKPMVVMTALQHGVVKENSVLNTLPYFVNGHQIKDVARYAELSVTGILQKSSNVGVSKLALAMPSSALVDTYSRFGFGKATNLGLVGESSGLYPKKQRWSDIERATFSFGYGLMVTPLQLARVYATIGSMGVYRPLSITRVDPPVAGERIFPEPLVRTVVHMMESVALPGGGGTKAAIKGYRIAIKTGTAKKVGPDGKYMDRYLAYTAGVAPASNPRFALVVVINDPQAGKYYGGAVSAPVFGAIMGGVLRTMNIEPDALPTGDKSELVINTKEGSGGRS	not failed
MTAAPAALHDRALHLLQTIWGYPAFRGVQGEIVQQVAEGGNALVLMPTGGGKSLCYQLPSLLRPGTGIVVSPLIALMKDQVDTLRQNGVRAAFLNSTLLPHEAREVEDALLRGDLDLLYVAPERLLMPRTLDLLERAPVALFAIDEAHCVSQWGHDFRPEYQQLSVLAERFPELPRVALTATADERTRADIKSVLRLEDAPQFVSSFDRPNIQYRVGLKDSPKTQLLHFIREEHPGDAGIVYCLSRKSVEETAKWLQAQGIDALAYHAGLSSTERNNVQERFLNEEGVIVCATVAFGMGIDKPNVRFVAHLDLPKSMEGYYQETGRAGRDGLPSTAWMVYGLSDVVNVRRMLAQSDAPEEVKRVEASKLDALLTYCEAATCRRQVLLHYFGEELSEPCGNCDVCLNPPRVRDLTREAQMALSATIRTGNRFGAAHLTDVLLGRETDKVLAQGHHQLPTFGVGKEHDEKLWRSVLRQLVSLGYLSADDHFGLRATGKSRGILKEGQKLLLREDTLLPGAGKSKRDRASASRAALDSHDAPLFEALRAWRLQKAKELSLPPYTIFHDATLKTIAELRPGSHATLGTVSGVGGRKLAAYGDEVLQVVRDSSGGGQAGPENLLDSPAFDPAVRGARNNNAVLDVLGSKGELQPQPKPAHPGVLGALRELRRTLAAEQGRSLSWVFPEATIDELARKLPTRSEELKDVFGLGGQRIQAFGDRILATIRAELTGGAPSPAPSAPAALFDEAVPPAPNADLSEALRELRRELMKETGYSAFVVFTNATLEALAARQPRTLAELAEVPGLGEKRIEAYGERILDAINTVLDG	failed
MSGKNEADSKDTGWEQIKDKGKIVVATSGTLYPTSYHDTDSGSDKLTGYEVEVVREAAKRLGLKVEFKEMGIDGMLTAVNSGQVDAAANDIDVTKDREEKFAFSTPYKYSYGTAIVRKDDLSGIKTLKDLKGKKAAGAATTVYMEVARKYGAKEVIYDNATNEQYLKDVANGRTDVILNDYYLQTLALAAFPDLNITIHPDIKYMPNKQALVMKKSNAALQKKMNEALKEMSKDGSLTKLSKQFFNKADVSKKIDADVQDVDLLEHHHHHH	not failed
MAELEKTFALIKPDAVRAGKAQEIMQLIELNGFTIIAKQKLQLTRARAEEFYGEHKGKEFFPKLVNFMTSGPIWALVLAKPGAILAWRALMGPTNVFKARAEQPKCLRALYGTDGTQNATHGSDSPISAAREIKFFFPTLSGDPTIYAEPTAAAEYITKRIQPALAKALAALAREKPSADKFEAITFVAGYLLQNNPNKPKV	not failed
MDLPVMPPVKPMLAKSVAKIPPDMQYEAKWDGFRAIVFRDGTEVELGSRTGKPLTRYFPELVEALRDRLPERCVIDGEIVIARDGRLDFDALTERIHPAESRVRMLAEKTPASFVAFDLLALADDSLLDTPLTERRALLESALSGVTAPVHVAPATTDREVAEQWFEQYEGAGLDGVIAKPLTLRYRQDERAMFKVKHERTADVVVAGYRLHKSGPVVGSLLLGLYDDRGALQHVGVSAAFPMKRRAELVEELEPLRMEDAAGHPWAAWSNEAAHETARLPGAPSRWSGKKDLSWVPLRPERVAEVAYDHMENGARFRHTARFRRWRPDRTPESCTYAQLEEPVSYDLTEILGSRGLEHHHHHH	not failed
MARDALTDALTVGELRRRVHALVLGKRQRVYSGAMFLVEVVHHPELSAMLGLEDNKLLLAMIAQRLQMQSDYFQVARHSSDSFMVWAPDLDPRSARDVAPEVLDALSQPYELRGQPLIVGFRLSGALYAQHGACFDELERSLHIAMLHLDESAGAAWNMFEPSMLEHQRHYQGLEHHHHHH	failed
MPPHASQVSVVVIGYDDAAHVTDAVRSALAQGPAVREVIAVDDCSSDGSPGLLDALAVEDTRVRVLRREVNSGGCGTPRNDGIDAATAPYTMFLDSDDMLPPGAVEALLAAADRHGAQVAAGLCVRRELPSGREVPWQPELYTEPALVPHPARLRRLVHDTLCVNKLYRTDFLREHAIRFPDGRFPYEDFVFSARVLAAGPRMALVPDTVYVWHVRRSAERLSISLDRAGIDNWQARMAAAAQAYDILLGAGEKRLARAARAKFLDHELRMYTRELDLRGTEYRREWWTLTRAYLSAFDAAEFALAPAPGRVIARVVLAAEEPRDLPRLKELAARPARLHPPYARAADGTPVWSADLPQVPLDHVLVRPMHLLPVAVDAELRPRARGTRLRLRLHELYGRVADAGPASVNLEFVHREGGRVGTAATAPLLADPEFDTWSAEVPVDLAALGSGTWDLRLTLRFHDGTSRDTTAHAVAGPGLLRRGVVPSGRHGVLLVQPYATHSGALALRVATGIQGVTSVMGRRLRRLLHW	failed
MKLSCVIVSHNMKNYIGRCIDSVRTALADIRSLVGEAEIIVVDRGSTDGTANAARTAYADVTIVDVPFDAGWATAANKGACAATGETLLFVSPEVELLSGGLPRLLEHLETNPACAIAGGAVVSTSGALLHGPARFPGLLGKLAALTGLGSRFPRTMLDWTRYGGRNLDLPLEVDSVSFDYAVVKAAAFCKLGRFDARFHTAFADTDLCRRASRTMLPRPTVAFVPQARARAQDNFVLRDEVQAFDLHGTAVVRGRVRCEMLYVWKNYCILTSLANTTLELVGQACRYAMGLLPVIGCDKTARHSAAVLKETAQAALDTQLGSQYPTTPWLEHHHHHH	failed
MSLTADPPACTVPAAGVSSTHKLVNGGAEKIVFKIKSSNNNEYRIAPVFGFVDPSGSKDVVITRTAGAPKEDKLVVHFASAPADATDAQAAFVAVAPAGTVTIPMSATA	not failed
MVYRDDYFIRHSISVSAVIVRAWITHKYSGRDWNVKWEENLLHAVAKNYTLLQTIPPFERPFKDHQVCLEWNMGYIWNLRANRIPQCPLENDVVALLGFPYASSGENTGIVKKFPRFRNRELEATRRQRMDYPVFTVSLWLYLLHYCKANLCGILYFVDSNEMYGTPSVFLTEEGYLHIQMHLVKGEDLAVKTKFIIPLKEWFRLDISFNGGQIVVTTSIGQDLKSYHNQTISFREDFHYNDTAGYFIIGGSRYVAGIEGFFGPLKYYRLRSLHPAQIFNPLLEKQLAEQIKLYYERCAEVQEIVSVYASAAKHGGERQEACHLHNSYLDLQRRYGRPSMCRAFPWEKELKDKHPSLFQALLEMDLLTVPRNQNESVSEIGGKIFEKAVKRLSSIDGLHQISSIVPFLTDSSCCGYHKASYYLAVFYETGLNVPRDQLQGMLYSLVGGQGSERLSSMNLGYKHYQGIDNYPLDWELSYAYYSNIATKTPLDQHTLQGDQAYVETIRLKDDEILKVQTKEDGDVFMWLKHEATRGNAAAQQRLAQMLFWGQQGVAKNPEAAIEWYAKGALETEDPALIYDYAIVLFKGQGVKKNRRLALELMKKAASKGLHQAVNGLGWYYHKFKKNYAKAAKYWLKAEEMGNPDASYNLGVLHLDGIFPGVPGRNQTLAGEIFHKAAQGGHMEGTLWCSLYYITGNLETFPRDPEKAVVWAKHVAEKNGYLGHVIRKGLNAYLEGSWHEALLYYVLAAETGIEVSQTNLAHICEERPDLARRYLGVNCVWRYYNFSVFQIDAPSFAYLKMGDLYYYGHQNQSQDLELSVQMYAQAALDGDSQGFFNLALLIEEGTIIPHHILDFLEIDSTLHSNNISILQELYERCWSHSNEESFSPCSLAWLYLHLRLLWGAILHSALIYFLGTFLLSILIAWTVQYFQSVSASDPPPRPSQASPDTATSTASPAVTPAADASDQDQPTVTNNPEPRG	failed
MANPLYHKHIISINDLSRDELELVLRTAASLKKTPQPELLKHKVIASCFFEASTRTRLSFETSIHRLGASVVGFSDSSNTSLGKKGETLADTMSVISTYVDAIVMRHPQEGASRLAAQFSGNVPIVNAGDGANQHPTQTLLDLFTIQETQGRLDNINIAMVGDLKYGRTVHSLTQALAKFNGNHFFFIAPDALAMPAYILQMLEEKEIEYSLHESLEEVVPELDILYMTRVQKERLDPSEYANVKAQFILRSSDLTGARDNLKVLHPLPRIDEITTDVDKTPYAYYFQQAGNGIFARQALLALVLNAELAL	not failed
